# From PMC4219657, “Structural and Mechanistic Basis of Zinc Regulation Across the E. coli Zur Regulon” (PLoS Biology, 2014)
# Numbering of substitutions follows the chain as printed. In names and notes the source's numbering stands.
# T1: Zur WT (Escherichia coli, UniProt P0AC51 1-171)
# T1 sequence: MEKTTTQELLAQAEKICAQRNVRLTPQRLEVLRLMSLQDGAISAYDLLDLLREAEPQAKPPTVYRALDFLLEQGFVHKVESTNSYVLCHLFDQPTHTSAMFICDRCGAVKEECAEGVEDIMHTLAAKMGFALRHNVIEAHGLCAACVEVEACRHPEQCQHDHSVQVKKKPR
# T2: Zur D49A (Escherichia coli, UniProt P0AC51 1-171, D49A)
# T2 sequence: T1 sequence with D49A
# T3: Zur R52A (Escherichia coli, UniProt P0AC51 1-171, R52A)
# T3 sequence: T1 sequence with R52A
# B1: 31mer2bpOH (dsDNA)
# DNA 1: AGAAGTGTGATATTATAACATTTCATGACTATG
# DNA 2: TAGTCATGAAATGTTATAATATCACACTTCTCA
# B2: Br-31mer2bpOH (dsDNA)
# DNA 1: B1 DNA 1 with T8U, T22U
# DNA 2: B1 DNA 2
# modifications: 5-bromo-dU at positions 8 and 22 of strand 1 (dU-Br)
# B3: PzinT 51 bp (dsDNA)
# DNA 1: CCCATTTTGCTATATGTTACAATATAACATTACACATCATATACATTAAGG
# DNA 2: CCTTAATGTATATGATGTGTAATGTTATATTGTAACATATAGCAAAATGGG
# B4: PznuABC 51 bp (dsDNA)
# DNA 1: CCGAATATGAGAAGTGTGATATTATAACATTTCATGACTACTGCAAGACGG
# DNA 2: CCGTCTTGCAGTAGTCATGAAATGTTATAATATCACACTTCTCATATTCGG
# B5: PpliG 51 bp (dsDNA)
# DNA 1: CCATGAGTACGATGAACTGTTATAATATAACAATCCCTAACGGGAGAAGG
# DNA 2: CCTTCTCCCGTTAGGGATTGTTATATTATAACAGTTCATCGTACTCATGG
# B6: E. coli zinc uptake regulator (Zur), wild type (natural protein)
# chain: T1 sequence
# notes: Zinc uptake regulator Zur of Escherichia coli; the crystal model includes residues 5-152 of each of four chains (A-D); Zinc-loaded (two Zn2+ sites per monomer); no tag is named; also called EcZur; WTZur; source: E. coli BL21 (DE3), pET24d-based plasmid, purified (heparin column)
# B7: E. coli Zur site B mutant C88S (natural protein)
# chain: T1 sequence with C88S
# notes: Zinc uptake regulator Zur of Escherichia coli with C88S (zinc site B); also called B-site (C88S) mutant; source: E. coli BL21 (DE3), pET24d-based plasmid, purified (heparin column)
# B8: PL31p 51 bp (dsDNA)
# DNA 1: CCATCATTTTTACCTGTTATGTTATAACATAACCATAAAGATACATGCTGG
# DNA 2: CCAGCATGTATCTTTATGGTTATGTTATAACATAACAGGTAAAAATGATGG
# What was measured:
# [1] = target: T1, Zur WT; assay: X-ray crystallography; Zn2+ (2 per monomer), 2.50 A; EMSA: 10 mM Tris pH 8.0, 10 mM NaCl, 100 mM K-glutamate, 167 mM KCl, 1.5 mM MgCl2, 1 mM CaCl2, 50 uM ZnSO4, 1 mM DTT, 0.1 ug/ml BSA, 2 ug/ml salmon sperm DNA, DNA <=45 pM, 22 C, 30 min; details: protein: recombinant; chain copies: 4; 3' overhang 2 nt on both strands
# [2] = target: T1, Zur WT; assay: X-ray crystallography; Zn2+; Br-DNA, 3.5 A; EMSA: 10 mM Tris pH 8.0, 10 mM NaCl, 100 mM K-glutamate, 167 mM KCl, 1.5 mM MgCl2, 1 mM CaCl2, 50 uM ZnSO4, 1 mM DTT, 0.1 ug/ml BSA, 2 ug/ml salmon sperm DNA, DNA <=45 pM, 22 C, 30 min; details: protein: recombinant; chain copies: 4; 3' overhang 2 nt on both strands
# [3] = target: T1, Zur WT; assay: EMSA; 50 uM ZnSO4; macroscopic Kd-app for two dimers; table footnote a not in material; EMSA: 10 mM Tris pH 8.0, 10 mM NaCl, 100 mM K-glutamate, 167 mM KCl, 1.5 mM MgCl2, 1 mM CaCl2, 50 uM ZnSO4, 1 mM DTT, 0.1 ug/ml BSA, 2 ug/ml salmon sperm DNA, DNA <=45 pM, 22 C, 30 min; details: protein: recombinant; chain copies: 4; label: 5'-Cy5 on strand 1; blunt
# [4] = target: T2, Zur D49A; assay: EMSA; 50 uM ZnSO4; Kd1, first dimer; EMSA: 10 mM Tris pH 8.0, 10 mM NaCl, 100 mM K-glutamate, 167 mM KCl, 1.5 mM MgCl2, 1 mM CaCl2, 50 uM ZnSO4, 1 mM DTT, 0.1 ug/ml BSA, 2 ug/ml salmon sperm DNA, DNA <=45 pM, 22 C, 30 min; details: protein: recombinant; chain copies: 2; label: 5'-Cy5 on strand 1; blunt
# [5] = target: T3, Zur R52A; assay: as above; details: protein: recombinant; chain copies: 2; label: 5'-Cy5 on strand 1; blunt
# [6] = target: T1, Zur WT; assay: EMSA; 50 uM ZnSO4; macroscopic Kd-app for two dimers, Hill ~2.1; EMSA: 10 mM Tris pH 8.0, 10 mM NaCl, 100 mM K-glutamate, 167 mM KCl, 1.5 mM MgCl2, 1 mM CaCl2, 50 uM ZnSO4, 1 mM DTT, 0.1 ug/ml BSA, 2 ug/ml salmon sperm DNA, DNA <=45 pM, 22 C, 30 min; details: protein: recombinant; chain copies: 4; label: 5'-Cy5 on strand 1; blunt
# [7] = target: T1, Zur WT; assay: EMSA; 50 uM ZnSO4; Kd1, first dimer; EMSA: 10 mM Tris pH 8.0, 10 mM NaCl, 100 mM K-glutamate, 167 mM KCl, 1.5 mM MgCl2, 1 mM CaCl2, 50 uM ZnSO4, 1 mM DTT, 0.1 ug/ml BSA, 2 ug/ml salmon sperm DNA, DNA <=45 pM, 22 C, 30 min; details: protein: recombinant; chain copies: 4; label: 5'-Cy5 on strand 1; blunt
# [8] = target: T1, Zur WT; assay: EMSA; 50 uM ZnSO4; macroscopic Kd-app for two dimers; EMSA: 10 mM Tris pH 8.0, 10 mM NaCl, 100 mM K-glutamate, 167 mM KCl, 1.5 mM MgCl2, 1 mM CaCl2, 50 uM ZnSO4, 1 mM DTT, 0.1 ug/ml BSA, 2 ug/ml salmon sperm DNA, DNA <=45 pM, 22 C, 30 min; details: protein: recombinant; chain copies: 4; label: 5'-Cy5 on strand 1; blunt
# [9] = target: the molecule itself; assay: crystal structure; Zn-loaded Zur with the 31 bp znuABC operator duplex (31mer2bpOH); hanging drop, 1.5 M ammonium sulfate, 0.1 M citrate pH 5.5, 4°C; refined to 2.50 Å
# [10] = target: the molecule itself; assay: SEC; analytical gel filtration of WT Zur, C103S and C88S; elution volume of WT (10.9 ml) as reference; column and buffer not told
binder,measurement,setting,value
B1,binding result,[1],binds
B2,binding result,[2],binds
B3,Kd,[3],5.3e-20 M^2
B4,Kd,[4],2.1 nM
same,Kd,[5],2.6 nM
same,Kd,[6],8.2e-18 M^2
B5,Kd,[7],28 nM
same,Kd,[8],5.2e-16 M^2
B6,stoichiometry N,[9],4
B7,stoichiometry N,[10],2
B8,Kd,[3],2.5e-20 M^2
